These results are taken from article PMC4739061.

Test [1] has as its target FGFR1 kinase domain and tail (Homo sapiens) (UniProt P11362). To be noted: cited from earlier work.
For test [2], the target named is GyrB.FGFR1KD.TC, activated (incubated with ATP, autophosphorylated) (UniProt P11362). Nature of the test: FRET or BRET; TR-FRET, lifetime of donor mTFP in a quartz cuvette; GyrB.FGFR1KD.TC (1 uM) tagged with FlAsH-EDT2 and mTFP.nSH2 (1 uM); 40 mM Tris-HCl pH 8.0, 20 mM MgCl2, 20 mM NaCl, 100 uM TCEP, 100 uM Na3VO4; with 50 uM ATP, ambient conditions, 30 min.

In the case of PLCγ1 nSH2 (from UniProt P19174), the Kd in test [1] was 5 nM.
Take “mTurquoise.nSH2 fusion protein (mTFP.nSH2) (domain or fragment)”: the decrease in donor lifetime in test [2] worked out at 500 ps.
